# Measurements: patent EP4702986A1, “POLYPEPTIDE AND USE THEREOF” (Biocells (Beijing) Biotech Co., Ltd., priority 2023, dated 2024)
# “And” between values parts separate entries of the source, which are not always exact repeats. Equal entries are not always repeated. Where two headings read alike, the source gives them in different places. Numbered stars: 1 amine (or outer) side, 2 acyl side, 3 side chain; on linkers, the order of the positions; unused ones are H or OH. Square brackets hold non-standard residues; d marks the D form. Side chains are listed from the residue outwards. Ends that are not written are not given here. * marks the point of attachment. C18 diacid = O=C(O)CCCCCCCCCCCCCCCCC(=O)*; γGlu = O=C(O)[C@H](CCC(=O)[*:2])N[*:1]; Hexadienoyl(2E,4E) = C/C=C/C=C/C(=O)*; NMeI = CC[C@H](C)[C@H](NC)C(=O)O; NMeL = CN[C@@H](CC(C)C)C(=O)O; Fumaroyl = O=C(O)/C=C/C(=O)*; Suc = O=C(CCC(=O)[*:2])[*:1]; AEEA = NCCOCCOCC(=O)O
# Target: T1, human ETB receptor (Homo sapiens, UniProt P24530)
# T1 construct: expressed in transfected cells; host or cells: 293T-17 cells, transient transfection
# T1 sequence (P24530 27-442): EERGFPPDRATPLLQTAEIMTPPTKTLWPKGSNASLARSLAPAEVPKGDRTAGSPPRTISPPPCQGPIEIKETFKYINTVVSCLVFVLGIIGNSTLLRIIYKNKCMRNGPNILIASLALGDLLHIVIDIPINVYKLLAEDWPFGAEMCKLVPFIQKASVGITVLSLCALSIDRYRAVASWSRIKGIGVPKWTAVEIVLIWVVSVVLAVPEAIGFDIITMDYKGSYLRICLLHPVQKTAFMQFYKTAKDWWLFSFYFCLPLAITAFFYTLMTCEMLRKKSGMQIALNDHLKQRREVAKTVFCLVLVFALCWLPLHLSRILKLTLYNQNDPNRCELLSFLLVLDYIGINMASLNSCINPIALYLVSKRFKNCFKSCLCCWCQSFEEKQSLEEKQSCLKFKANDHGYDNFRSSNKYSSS
# Assay: Screening of polypeptides for activity on human ETB receptor (IP-One Gq kit, % of positive control IRL1620)
# Format: cell-based
# Procedure: 293T-17 cells were seeded at a density of 650,000 cells per well in a 6-well plate and cultured overnight in an incubator at 37°C and 5% CO2. Afterward, the cells were transfected with an expression vector, PCDNA3.1-hETB which contained a human ETB receptor gene, at a plasmid concentration of 2.5 µg per well. The cells were further cultured for 48 hours, and green fluorescence expression was observed under a fluorescence microscope. The cells were then digested with trypsin and counted. The activity of compounds on the human ETB receptor was determined with the IP-One Gq kit from Cisbio Bioassays. The cells were suspended in Stim Buffer provided in the kit and the cell suspension was added to a 96-well detection plate at 7 µL cell suspension (containing 30,000 cells) per well. The polypeptides to be screened for activity (prepared according to the Preparation Example of the invention) and polypeptide IRL1620 as positive control were dissolved in Stim B to be at a concentration of 2×, and 7 µL was added to the test cells, while 7 µL of PBS solution was added to the cells in the negative control wells. IRL1620 was used as the positive control polypeptide. The plate was sealed and incubated at 37°C for 1 hour in a cell culture incubator. Test wells, positive control wells, and PBS control wells were each added with 3 µL of IP1 d2 working solution and 3 µL of IP1 Tb cryptotate Antibody working solution. The plate was then sealed and incubated in the dark at room temperature (25°C±5°C) for 1 hour. The plate seal was removed, and the […] at 665 nm and 620 nm was measured with an ID5 microplate reader. The ratio of the acceptor emission signal to the donor emission signal, i.e., the value of (signal at 665 nm/signal at 620 nm)×10^4, was calculated for each well. With F1 representing the average value of values of signal at 665 nm/signal at 620 nm determined for the test sample at a specific concentration, F2 representing the average value of values of signal at 665 nm/signal at 620 nm determined for the positive control IRL1620 at the same concentration, and T1 representing the average value of values of signal at 665 nm/signal at 620 nm determined for the PBS negative control, the percentage of activity of the test polypeptide sample relative to the positive control sample IRL1620 is equal to (F1-T1)×100/(F2-T1). hETB sequence (NCBI accession number NM_000115.5).
Substance,"hETBR agonist activity, percentage of activity relative to IRL1620","hETBR agonist activity, percentage of activity relative to IRL1620 (@10nM)","hETBR agonist activity, percentage of activity relative to IRL1620 (@1µM) [%@1µM]","hETBR agonist activity, percentage of activity relative to IRL1620 (@10µM) [%@10µM]"
"SA-DEEAVYFAHLDIIW ({Hexadienoyl(2E,4E)}-DEEAVYFAHLDIIW) [BX-111]",64.98%@100nM,-11.84%@10nM,,
Fum-D cyclo(EEAK)YFAHK(-γE-AEEA-AEEA-ODDA)D(2-Abu)IW [BX-104],-21.93%@100nM,-1299.77%@10nM,,
Fum-DEEE(Biotin)VYFAHKDIIW [BX-16],22.24%@1µM and 14.10%@10µM,,,
Fum-DEEAK(-γE-AEEA-AEEA-ODDA)YFAHLDIIW [BX-109] (Fum-DEEAK with lipidated linker N-terminal),74.1%@100nM,-1095.4%@10nM,,
Fum-DEEAVYFK(-γE-AEEA-AEEA-ODDA)HLDIIW (Fumaroyl-DEEAVYFK([γGlu-AEEA-AEEA-C18 diacid])-{H2N-Leu-Asp-Ile-Ile-Trp}) [BX-68],-18.64%@100nM,-39.42%@10nM,,
Fum-DEEAKYFAHLDVIW (Fumaroyl-DEEAKYFAHLDVIW) [BX-106],117.63%@100nM,117.57%@10nM,,
Fum-DEEEVYFAHK(-AEEA-AEEA-γE - ODDA)DIIW (Fumaroyl-DEEEVYFAHK([AEEA-AEEA-γGlu-C18 diacid])DIIW) [BX-60],4.84%@100nM,-15.72%@10nM,,
Fum-DEEAKYFAHK(-γE-AEEA-AEEA-ODDA)DIIW (Fumaroyl-DEEAKYFAHK([γGlu-AEEA-AEEA-C18 diacid])DIIW) [BX-107],100.37%@100nM,50.48%@10nM,,
Fum-DEEAVYFAHOrn(-AEEA-AEEA-γE-ODDA)DIIW [BX-51],37.60%@100nM,47.83%@10nM,,
Fum-DEEAK(-γE-AEEA-AEEA-ODDA)YFAHLDVIW (Fum-DEEAK with lipidated linker N-terminal) [BX-110],132.61%@100nM,138.99%@10nM,,
Suc-DEEAVYFAHLDI(N-Me)IW (Suc-DEEAVYFAHLDI[NMeI]W) [BX-25],28.86%@100nM,19.19%@10nM,,
Fum-DEEAVYFAHLDVIW (Fumaroyl-DEEAVYFAHLDVIW) [FBX-7],99.81%@100nM,91.89%@10nM,,
Fum-D cyclo(EEAK)YFAHK(-γE-AEEA-AEEA-ODDA)DIIW [BX-103],14.93%@100nM,45.51%@10nM,,
Fum-DEEAVYFAHKDVIW (Fumaroyl-DEEAVYFAHKDVIW) [BX-23],89.28%@100nM,26.12%@10nM,,
Fum-DEEAKYFAHLDIIW (Fumaroyl-DEEAKYFAHLDIIW) [BX-105],253.05%@100nM,64.66%@10nM,,
Suc-DEEAVYFAHOrn(-AEEA-AEEA-γE - ODDA)DIIW [BX-61],40.94%@100nM,13.97%@10nM,,
Fum-DEE(C16)AVYFAHLDIIW ({Fumaroyl-Asp-Glu-E(C16)}-AVYFAHLDIIW; not fully specified; printed as Fum-DEE(C16)AVYFAHLDIIW) [BX14-1],,,15.80,18.63
Fum-DEEAVYFAHL(N-Me)DI(N-Me)IW (Fumaroyl-DEEAVYFAH[NMeL]; not fully specified (C-terminus)) [BX-29],6.51%@100nM,15.61%@10nM,,
Fum-DEEAVYFAHK(-γE-AEEA-AEEA-ODDA)DVIW (Fumaroyl-DEEAVYFAHK([γGlu-AEEA-AEEA-C18 diacid])DVIW) [BX-101],30.96%,,,
Suc-DEEAVYFAHL(N-Me)DIIW (Suc-DEEAVYFAH[NMeL]; not fully specified (C-terminus)) [BX-26],30.58%@100nM,11.94%@10nM,,
Fum-DEEAK(-γE-AEEA-AEEA-ODDA)YFAHLDIIW [BX-67] (Fum-DEEAK with lipidated linker N-terminal),46.98%@100nM,2.68%@10nM,,
Suc-DEEAVYFAHL(N-Me)DI(N-Me)IW (Suc-DEEAVYFAH[NMeL]; not fully specified (C-terminus)) [BX-27],0.42%@100nM,1.72%@10nM,,
Fum-DEEAVYFAHL(N-Me)DIIW (Fumaroyl-DEEAVYFAH[NMeL]; not fully specified (C-terminus)) [BX-28],-10.73%@100nM,8.27%@10nM,,
Fum-DEEAKYFAHK(-γE-AEEA-AEEA-ODDA)DVIW (Fumaroyl-DEEAKYFAHK([γGlu-AEEA-AEEA-C18 diacid])DVIW) [BX-108],9.56%@100nM,-1185.11%@10nM,,
MeO-Fum-D cyclo(EEAK)YFAHLD(2-Abu)IW [BX-65],99.24%@100nM,59.02%@10nM,,
MeO-Fum-DEEAVYFAHK(-γE-AEEA-AEEA-ODDA)DIIW ({MeO‑Fum}-DEEAVYFAHK([γGlu-AEEA-AEEA-C18 diacid])DIIW) [BX-75],-10.59%@100nM,14.68%@10nM,,
Fum-D cyclo(EEAK)YFAHLDIIW (Fumaroyl-DEEAKYFAHLDIIW; lactam (positions not given here)) [BX-102],155.47%,113.81%,,
